The values below come from the nanobody polyreactivity screen of Harvey et al. (2022).

This series in a line: yeast display, Sf9 membrane polyspecificity reagent, FACS + sequencing; frameworks hold sequencing errors. The gist of the method:
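A synthetic nanobody library was expressed on Saccharomyces cerevisiae BJ5465 by galactose induction for 36–48 hours. The library was stained for 1 hour at 4 °C with 10% biotinylated, detergent-solubilized Sf9 membrane reagent and enriched with streptavidin microbeads before FACS. Low and high (top ~1%) gates were set on anti-HA fluorescence for expression and streptavidin fluorescence for reagent binding, and each polyreactivity label reflects the gate of origin.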
For “QVQLVESGGGLVQAGGSLRLSCSASGRIFPRNAMGWYRQAPGKERHLVAAISQSGTSTYYADSVKGRFTISRDNAQKTVYLQMNSLKREDTAVYYCAASGWDHVIVEYDYWGEGTQVTVSS”, the “polyreactivity (PSR sort gate)” value was “low polyreactivity”.

Take “QVQLVESGGGLVQAGGSLRLSCSASGRIFPWNTMGWYRQAPGKERELVAGITSGGSTNYADSVKGRFTISRDNAKNTVYLQMNSLKPEDTAVYYCAARGYYWYISGVYEYEYWGQGTQVTVSS”: the “polyreactivity (PSR sort gate)” value is recorded as “low polyreactivity”. To “QVQLVESGGGLVQAGGSLRLSCSASGRTFDGYAMVWYRQAPGKEREMVASITRGGGSTYYADSVKGRFTISRDNAKNTVYLQMNSLKPEDTAVYYCATSDRQVKYDYWGQGTQVTVSS” belongs “low polyreactivity”; to “QVQLVESGGGLVQAGGSLRLSCSASGRTFLYDMGWYTHATGKELELVAAISRGGSTSYADSVKGRFTISRDNAKNTVYLQMNSLKPEDTAVYYCATRGLVGYYSYYYWGQGTQVTVSS”, “high polyreactivity”; to “QVQLVESGGGLVQAGGSLRLSCSASGRTFSKYAMAWYRQAPGKERELVAAISKRGGSTSYADSVKGRFTISRDNAKNTVYLQMNSLKREDTAVYYCAATYTYVVPEYDYWGHGTQVTVSS”, “high polyreactivity”. To “QVQLVESGGGLVQAGGSLRLSCSASGRTFSWYAMGWYRQAPGKERELVAAISWSGGSTYYADSVKGRFTISRDNAKNTVYLQMNSLKPEDTAVYYCNAVGRPLRGYDYWGQGTQVTVSS” belongs “high polyreactivity”; to “QVQLVESGGGLVQAGGSLRLSCSASGRTFTPYAMGWYRQAPGKEREFVAAISIVGRTKYADSVKGRFTISPDNAKNTFYFQMNSLKPEDTAVYYCNAQDSRDRKFYWGYTRGHWGQGTQVTVSS”, “low polyreactivity”. Regarding “QVQLVESGGGLVQAGGSLRLSCSASGRTFYGNAMGWYRQAPGKERELVAAISWSGGSTYYADSVKGRFPISRDNAKNTVYLQMISLKPEYTAVYYCNADYFAWDLMYYWGQGTQVTVSS”, the “polyreactivity (PSR sort gate)” value is on record as “low polyreactivity”. To “QVQLVESGGGLVQAGGSLRLSCSASGRTSDYYAMGWYRQAPGKERELVAAITSGGSTYYADSVKGRFTISRDNAKITVYFQMNSLKPEDTAVYYCAATWYWGWVFSYTSFDYWGLGTQVTVSS” belongs “low polyreactivity”; to “QVQLVESGGGLVQAGGSLRLSCSASGSIFAIYTMGWYRQAPGTERELVAAISSRGDSTYYADSVKGRFTISRDNAKNTVYLQMNSLKPEDTAVYYCATRGDGVLGRRGYYWGQGTQVTVSS”, “high polyreactivity”. For the sequence “QVQLVESGGGLVQAGGSLRLSCSASGSIFASNTMGWYRQAPGKERELVAGITKIGSSTYYADSVKGRFTISRDNAKNTFYLQMKSLKPEDTAVSYCKAYGPNIYSSRYDYWVQGTQVTVSS”, the “polyreactivity (PSR sort gate)” value is given as “low polyreactivity”. To “QVQLVESGGGLVQAGGSLRLSCSASGSIFAWYGRGWYRQSPGKESELVAAITSTGSTYYADSVKGRFTISRDNAKNTVYLQMTSLKPEDTAVYYCNAYYVYLWRPGVYWGQGTQVTVSS” belongs “low polyreactivity”. To “QVQLVESGGGLVQAGGSLRLSCSASGSIFSYYTMGWYRQAPGKERELVAAITGSGGRTYYADSVKGRFTISRDNAKNTVYLQMNSLKPEDTAVYYCNADRHYVPYYSRPRYIPYDYWGQGTQVTVSS” belongs “high polyreactivity”. To “QVQLVESGGGLVQAGGSLRLSCSASGSILVRYAMGWYRQSPGKERELVAAITSGGSTYADSVKGRFTISRDNAKNTVYLQMNSLKPEDTAVYYCARDYFNREAFDYWGQGTQVTVSS” belongs “low polyreactivity”. For “QVQLVESGGGLVQAGGSLRLSCSASGSTFEKNAMGWYRQAPGKERELVAAISNGVSTYYADSVKGRFTNSRDNAKNTVYLKINSLKPEDTAVYYCAAVLFFGAETVYYDKFDYWGQGTQVTVSS”, the “polyreactivity (PSR sort gate)” value is “low polyreactivity”. To “QVQLVESGGGLVQAGGSLRLSCSASGSTFESNAMGWYRQAPGKERELVASISGSGGSTFYADSVKGRFTISRDNAKNTVYLQMNSLKPEDTAVYYCAAYKEPYYEEYGYWGQGTQVTVSS” belongs “low polyreactivity”.
